Among the data in patent publication US20190262398, “TIM3 HOMING ENDONUCLEASE VARIANTS, COMPOSITIONS, AND METHODS OF USE” (bluebird bio, Inc., published 2019) are Kd and activity values, retold here.

Data set [1] addresses T1, TIM3_rd3.22 HE (I-OnuI variant) (Artificial (I-OnuI from Ophiostoma …)).
T1 chain: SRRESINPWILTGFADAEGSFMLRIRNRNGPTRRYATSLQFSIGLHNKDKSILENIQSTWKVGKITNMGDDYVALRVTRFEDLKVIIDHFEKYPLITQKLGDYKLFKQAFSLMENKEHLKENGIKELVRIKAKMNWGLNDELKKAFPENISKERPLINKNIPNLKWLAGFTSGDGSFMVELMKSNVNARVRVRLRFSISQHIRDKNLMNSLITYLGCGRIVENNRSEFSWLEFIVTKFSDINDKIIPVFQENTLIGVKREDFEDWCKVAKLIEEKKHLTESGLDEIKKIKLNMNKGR
As to the kind of experiment: flow; yeast surface display substrate titration; stated as subnanomolar affinity. The note with it: tags: yeast surface display.

The target in data set [2] is T2, TIM3_rd3.22 HE (I-OnuI variant), mammalian expression (Artificial (I-OnuI from Ophiostoma …)).
T2 chain: T1 chain
As to the kind of experiment: cell_activity; HEK293T chromosomal mCherry reporter; approx 4-fold higher rate of mCherry cells after refinement. As for the experimental part: The activity of reprogrammed I-OnuI HEs that target exon 2 of the TIM3 gene was measured using a chromosomally integrated fluorescent reporter system (Certo et. al., 2011). Fully reprogrammed I-OnuI HEs that bind and cleave the TIM3 target sequence were cloned into mammalian expression plasmids and then individually transfected into a HEK 293T […] cell line that was reprogrammed to contain the TIM3 target sequence upstream of an out-of-frame gene encoding the fluorescent mCherry protein. Cleavage of the embedded target site by the HE and the subsequent accumulation of small insertions or deletions, caused by DNA repair via the non-homologous end joining (NHEJ) pathway, results in approximately one out of three repaired loci placing the fluorescent reporter gene back “in-frame”. mCherry fluorescence is therefore a readout of endonuclease activity at the chromosomally embedded target sequence. […] FIG. 3 (top panel).
A secondary I-OnuI variant library was generated by performing random mutagenesis on one of the reprogrammed I-OnuI HEs that targets the TIM3 target site identified in the initial reporter screen (TIM3_rd1.12, SEQ ID NO: 6). In addition, display-based flow sorting was performed under more stringent cleavage conditions in an effort to isolate variants with improved catalytic efficiency. FIG. 3 (middle panel). […]

B1: TIM3 exon 2 HE target site (dsDNA)
DNA 1: TGTCCAATAATTCACATCCCTT
DNA 2: AAGGGATGTGAATTATTGGACA
Usually Kd stands for a measure of binding affinity in units of concentration. Regarding B1, in data set [1], the dissociation constant Kd is less than 1 nM. In data set [2], this molecule yielded an activity of approximately 4 fold.
